Protein production data for 24 sequences are collected here from a protein production outcome set (Wang et al. 2014).

The data set in a line: label from the status in PepcDB records.
Take “FGLEGLPKHLKRIPLECLVEAKSYLRQYPQVDSERIGIYGRSKGAELVLAEESIFNDVQCLVLNSPSDVVDEGIIGKWNSHTSSWTHLQKELPYQKFRFRDYLFSKLFRKDFPKDCSARIDIGQMHSPILLLESTVDEIWDASSAIDDIVSHYKGHYITFKKYHETGHMLTVAYQPNHRYRKDWHLLMKESEDSWLATIHFFDRHLK”: the protein production entry is given as “failed”.
To “MDVFSEYLAGIADPFHRERTEEVLTWIKNKYPNLHTEIKWNQPMFTDHGTFIIGFSVSKKHLAVAPEKVTIAHVEDDIVKAGYDYTEQLIRIPWNGPVDYTLLEKMIEFNILDKADCSTFWRK” belongs “not failed”; to “SLGVQPPNFSWVLPGRLAGLALPRLPAHYQFLLDLGVRHLVSLTERGPPHSDSCPGLTLHRLRIPDFCPPAPDQIDRFVQIVDEANARGEAVGVHCALGFGRTGTMLACYLVKERGLAAGDAIAEIRRLRPGSIETYEQEKAVFQFYQRTK”, “not failed”.
Consider “MSQSMYSYPAMTANVGDMAGYTGTTQSLGADIASERTAPSRACQGDLGMSHQDWQAQWNQAMEALARAYRRCRRALRQIGVLERPVGDSSDCGTIRVGSFRGRWLDPRHAGPATAADAGD”, for which the protein production entry is given as “failed”.
To “PLSFSLLPATRDDIAMIVDRKRAQIARTHQYDVFACGWTVTLLERLVDASAEDFGLRTATLRAGGRVVAAELGLLSEGRYHLWLPIYDPEFARYSPGALMTLDTLEALAGLGVSRVDFGVDAD” belongs “failed”; to “TTQNELLNRIAELETKVAFQDNVIEELNQVLIHHQFVLDKLQTQVRHFANKFKNIQSSNVASQAEETPPPHY”, “failed”.
“MNHFTPAQQRKALGYLVLFHLVIIASSNYLVQIPFTIFGFHTTWGAFTFPFIFLATDLTVRIFGAGLARKIIFLVMLPALAVSYLLSVVFFEGQYQGLAPLSEFNLFVARIAIASFMAYLLGQIMDVHVFNRLRQMKQWWVAPTCSTLFGNALDTIAFFSIAFYQSSDPFMAEHWTEIALVDYTFKLIISLGLFVPMYGVLLNYLIKKLTAVNPNFAMASAKA”: the protein production result is “failed”.
For “SVVAKVKIPEGTILTMDMLTVKVGEPKGYPPEDIFNLVGKKVLVTVEEDDTIMEELVDNHGKKIKS”, the protein production result is on record as “not failed”.
As to “MLIKKNALSILKIVFPIAVLLFVIYQSKKELTNLSFKRTLMVINGLERTDLFMLVLIGLLAVAAMSLYDYVLKYSLRLSITNGKVFRVSWIANSFNNVLGFGGLAGVGLRMMFYKEHTKDHKALVKGIAWLTSSMLLGLSVFSIFVAARVLPVDEVIHEKPWLWAVVIGFALILPLSLAVSKIKDRKAGDEENADKVKNPIFAYIGASVVEWLMAGTRHLFCFVRYGHSCRYQVCVRGVRHCGDRRNDQPRAGRLRLV”, the protein production entry is listed as “failed”.
Turning to “RNTNPGIKCFAVRSLGWVEMTEEELAPGRSSVAVNNCIRQLSYHKNNLHDPMSGGWGEG”, the protein production entry was “failed”.
For the sequence “MKSCSRSSSVRLCVRCTGLSLWCCIGHATSVIKSVRNMQSVIGNGYKRSPTGKESRMTPLTSDFLSSSVVFLSAAVIAVPLAQRAGLGSVLGYLLAGIAIGPWGLGLIRDVQAIMHFAEFGVVLLLFLIGLELNPKKLWNLRGPILGLGGAQVVVTTAVLSSVAYLLGVSWQSALVIGMALALSSTAIALRVIEEHGLTRTEAGQSGFAVLLFQDIAVIPMLALLPILAGNSSGDWLNALWMTGGIAALLLGGHFLLNPLFRYIALSGVRELFTVAALLLVVGIALLMQKVGLSMALGTFLAGVILAESEFRHELEIAIDPFKGLLLGLFFISVGMAVDVGLLLVKPLQIMLAVLGLVIVKGLVLYLLARLSGTVAKARSKMAAILSQGGEFAFVIFTAASAEGLLTASQVSFLLVVVSLSMVTTPLLLSAQKYWFARQLNIEENPLTPDVENKEPRVIIVGFGRFGQIVGRLLYANKIKVTILESDASQVRLLRKYGYKVFYGDATNLELLRAAGVEQAEALVVCTDDPEQVITIVELCQQHFPNLKLLARARSRVEAYQLMSLGVQNYTRETFLSALDLGRKALVQLGMHPYQAKRAEEHFHRLDKTMLKELLPQHNEDKQLELRAKEARTELEEIFSREMDSDQLSRRYWEKE”, the protein production entry was “failed”.
For “MGIHQYFQSLSDLENIYRCPGKFKYQEHSVAEHSYKVTSIAQFFGAVEEDAGNEVNWRALYEKALNHDYSELFIGDIKTPVKYATTELREMLSEVEESMTKNFISREIPATFQPIYRHLLKEGKDSTLEGKILAISDKVDLLYESFGEIQKGNPENIFVEIYSEALATIYEYREMASVKYFLKEILPDMLAEKGIEKTELPQLTTEITTKALRDE” the value was “not failed”; for “NIEQLSQSLEHMANQAATLDRQRGEHHVPLFDERLFSCRSRLLTPCVKEAKSTLDAIIREQNENKLTALRAEYLTERLVAQIGAIQREISTTKIRKNEIKHSSHFRKPINVLYQELAQHQEWARRLREMVLEKERAVETAPSFMRAEAQKVLLATEQRLARCEAALLKLENQITHREK”, “failed”; for “PQALEFEYMRWIATGARAFIDAHQDASKLRITHLGGGACTMARYFADVYPQSRNTVVELDAELARLSREWFDIPRAPRVKIRVDDARMVAESFTPASRDVIIRDVFAGAITPQNFTTVEFFEHCHRGLAPGGLYVANCGDHSDLRGAKSELAGMMEVFEHVAVIADPPMLKGRRYGNIILMGSDTEFF”, “failed”.
To “PTEFLYTSKIAAISWAATGGRQQRVYFQDLNGKIREAQRGGDNPWTGGSSQNVIGEAKLFSPLAAVTWKSAQGIQIRVYCVNKDNILSEFVYDGSKWITGQLGSVGVKVGSNSKLAALQWGGSESAPPNIRVYYQKSNGSGSSIHEYVWSGKWTAGASFGSTVPGTGIGATAIGPGRLRIYYQATDNKIREHCWDSNSWYVGGFSASASAGVSIAAISWGSTPNIRVYWQKGREELYEAAYGGSWNTPGQIKDASRPTPSLPDTFIAANSSGNIDISVFFQASGVSLQQWQWISGKGWSIGAVVPTGTPAGW” belongs “not failed”.
To “MILIKKFATVASGTLMSRIFGFVREMLMAAALGTGPVSDAFNAAFRFPNTFRRFFAEGAFNAAFVPLFAKRITEDGQETACKFAEEVFGVLFSLLLLLTIAMELSMPFLVRTIIAPGFAEDATKFNATIHFTAIMFPYLTCMSLAAMMGGMLNALRRYFIAAIAPLFLNIILISVLAYAWIYQLDTWHIGLNLSWGVLAAGLLQLTLIAAALRQSGMKIFLRRPRFSSNVRKLLTLAFPAAITGGITQINLLINTNIASSQSGAVSSLMYADRLYQLPLGVIAIAIATVLLPELTRALRSKNHKETHNLQNRSIELTLLLTLPASVAFLILSTPIVSLLFERGQFTSLSTHYVAQLLKLYGLGLPAFVLIKIFIPNFFAHEDTKTPMIITGICVFINISLALILFPILSARGIVIAEITSGWMNALLLWTILIQRGYWKYDIQLIKRITCLIITTLLNTIALYYVFDVIDFLSFPLSSQASFFLRASTLAGIMVAILLVHCFAYFLLDTRSFFLTLKNFKKRL” belongs “failed”; to “MHIAIIGAAGMVGRKLTQRLVKDGSLGGKPVEKFTLIDVFQPEAPAGFSGAVDARAADLSAPGEAEKLVEARPDVIFHLAAIVSGEAELDFDKGYRINLDGTRYLFDAIRIANGKDGYKPRVVFTSSIAVFGAPLPYPIPDEFHTTPLTSYGTQKAICELLLSDYSRRGFFDGIGIRLPTICIRPGKPNAAASGFFSNILREPLVGQEAVLPVPESIRHWHASPRSAVGFLIHGAMIDVEKVGPRRNLSMPGLSATVGEQIEALRKVAGEKAVALIRREPNEMIMRMCEGWAPGFEAKRARELGFTAESSFEEIIQVHIEDELGGSLK”, “not failed”; to “MVNFEEMTFENIMESMLDAVPATLDKREGSMIWNSLAPAASQIALLYTWLENAFELVFYDTAPDEFLDRAAAPYGVIRKPAVATQRIIKGIDENDNKIEIPEGSRFFVESENIYFKVTSSTILEQVVECEVAGTKGNADFSNDTILSLDNIYGLAKVEIGDILIPGSDEEELETFRKRFFTKIQKDAFSGNKNHYKLWAEEVLGVGKAKIYPLGYGEGTVKIVITDTNLHPASPTLVEQVRNYIDPLPQKGEGVAPIGAKVFIESAAWKTINISGQLVLKDGKSVNDVIEEITMDINKLFKSITFPEDELTSVKLAVISNIIFSAPSVLDNFNIKLNNEAANIILAENEVPQLGAFSFELILEHHHHHH”, “failed”.
Regarding “MSSDHRDQYYWRAKRDQFRSRAAYKLEFLIERYGIIKDGQAVLEIGSSPGGWTQVLVDHGCRVVAVDIQPMDEIPGVIFLKLNILREDAAERIREEMARSLVQRFDVVLSDAMAKTSGIRSSDHAASVMIGNAVMKIAMDTLRRGGVAVVKQFQGDMTGDFIKNWGHYFRDHRITKPPASRKESSEVYIIFYGFSGKETDNSVQG”, the protein production entry is reported as “failed”.
For “MYRMDKYTIGLIRVITLEDKEILNLHGRIIESAFPELKVVSRCIEDQPKGIYNEETEREAEPKIIRLAKEFEREGVDAIIISCAADPAVEKVRKLLSIPVIGAGSSVSALALAYGRRVGVLNLTEETPKVIRSILGNNLIAEDHPSGVSNTLDLLTDWGRREVINAAKRLKEKGVEVIALGCTGMSTIGIAPVLEEEVGIPVIDPVIASGAVALHALKRREVKRFEGR” the value was “not failed”.
To “MKHFKLPDLGEGLQEAEIVEWHVKAGDSVRADQRLVSVETAKALVDIPAPYDGVVGKLFGAEGDILHVGEPLVGFEGEEADAGTVVGRLEGGGSALEDRFFIGAAPSTREHLAPRATPAVRQFARQQGVELAGLSGSGPDGLITRADVEAAAQGTRERFGGERLRGVRRSMALNMARSHAEVVPVTIYGDADLHRWKTARDPLIRLAQALAEACRAEPTLNAWFDGASLSLKLHERLDLGIAVDTPDGLFVPVLRDVGARSAEDLRAGMRRLREDVQARSIPPAEMLGATLTLSNFGTLFGRYANPVVVPPQVAILGAGGIRDEVVAWRGEMAIHPILPLSLSFDHRAATGGEAARFLKVLVNALEQPD” belongs “failed”.
Consider “VSGFQRLQKPVVSQPDFRRQPVSETMQVYLKQAADPGRDVGLYWMATDFENRRFPGKVSPSGFQKLYRQWRNQTGWDAYVQSCRAIWNDVKYFPIPQSLDDTEDKISYVDSWMFERNYGGKRGHEGTDIMAEKNTPGYYPVVSMTDGVVTEKGWLEKGGWRIGITAPTGAYFYYAHLDSYAELEKGDPVKAGDLLGYMGDSGYGEEGTTGEFPVHLHLGIYLKEGTEEISVNPYPVLRYAENARIKCVYSR”, for which the protein production result is “not failed”.
For “MSLRITRIRLYKTDLPYVDGSYGWGAGNAITVARASVVVIDTDAGLQGCGEFTPCGENYMIAHSEGVDAFARLAAPQLLGQDPRQVARMERLMDHLVQGHGYAKAPFDAAFWDILGQATGQPVWMLLGGKLCDGAPMYRVAPQRSEAETRAELARHRAAGYRQFQIKVGADWQSDIDRIRACLPLLEPGEKAMADANQGWRVDNAIRLARATRDLDYILEQPCRSYEECQQVRRVADQPMKLDECVTGLHMAQRIVADRGAEICCLKISNLGGLSKARRTRDFLIDNRMPVVAEDSWGGEIASAAVAHFAASTPEEFLINSTDLMNYNTRSTGLGGPTVHQGRLYASDTPGLGVTPDFNSLGAPVADWALPEGHHHHHH” the value was “not failed”; for “MTNWTEIDEIAKKWIREAGARITQSMHESLTIETKSNPNDLVTNIDKETEKFFIDRIQETFPGHRILGEEGQGDKIHSLEGVVWIIDPIDGTMNFVHQQRNFAISIGIFENGEGKIGLIYDVVHDELYHAFSGRGAYMNETKLAPLKETVIEEAILAINATWVTENRRIDQSVLAPLVKRVRGTRSYGSAALELANVAAGRIDAYITMRLAPWDYAAGCVLLNEVGGTYTTIEGEPFTFLENHSVLAGNPSIHKTIFEEYLHARK”, “failed”.
